Positions count from the first letter of the chain named.
B1: A26.8 VHH, wild-type (canonical Cys23-Cys104 disulfide linkage only) (VHH)
VHH: QVKLEESGGGLVQAGGSLRLSCAASERTFSRYPVAWFRQAPGAEREFVAVISSTGTSTYYADSVKGRFTISRDNAKVTVYLQMNNLKREDTAVYFCAVNSQRTRLQDPNEYDYWGQGTQVTVSS
B2: A26.8 VHH with engineered Cys4-Cys25 disulfide linkage (VHH)
VHH: B1 VHH with L4C, A24C
B3: A26.8 VHH with engineered Cys24-Cys86 disulfide linkage (VHH)
VHH: B1 VHH with A23C, T78C
B4: A26.8 VHH with engineered Cys22-Cys88 disulfide linkage (VHH)
VHH: B1 VHH with S21C, Y80C
B5: A26.8 VHH with engineered Cys4-Cys118 pair (VHH)
VHH: B1 VHH with L4C, W114C
B6: A26.8 VHH with engineered Cys6-Cys119 disulfide linkage (VHH)
VHH: B1 VHH with E6C, G115C

Target: Clostridioides difficile toxin A (Clostridioides difficile, strain not …, UniProt P16154)
Assay: SPR
Conditions: both partners purified

| Binder | Kd | koff | kon |
| --- | --- | --- | --- |
| B1 | 16.5 nM | 0.0259 s⁻¹ | 1.57e+06 M⁻¹ s⁻¹ |
| B2 | 12.6 nM | 0.062 s⁻¹ | 4.93e+06 M⁻¹ s⁻¹ |
| B3 | 43.6 nM | 0.0271 s⁻¹ | 621000 M⁻¹ s⁻¹ |
| B4 | 18.7 nM | 0.028 s⁻¹ | 1.5e+06 M⁻¹ s⁻¹ |
| B5 | 43.4 nM |  |  |
| B6 | 12.6 nM | 0.0691 s⁻¹ | 5.5e+06 M⁻¹ s⁻¹ |
